Where “and” joins values, the source holds several entries; their conditions need not be identical. Identical values can stand only once. Like-named read-outs stand apart in the source and are kept apart here.
Columns and labels:
[1] = molecular target: SpaO-2SpaOC heterotrimer (Salmonella Typhimurium strain SL1344) (UniProt P40699); test: native MS
[2] = molecular target: SpaO-2SpaOC heterotrimer (Salmonella Typhimurium strain SL1344) (UniProt P40699); test: native MS; remark: listed apart in the source
[3] = molecular target: InvC, full-length, C-terminal Strep-tag (Salmonella Typhimurium strain SL1344) (UniProt P0A1B9); test: native MS
[4] = molecular target: OrgB (co-expressed with Strep-tagged InvC or InvC fragments) (Salmonella Typhimurium strain SL1344); test: native MS
[5] = molecular target: OrgB, C-terminal His-tag (co-expressed with spaO) (Salmonella Typhimurium strain SL1344); test: native MS
[6] = molecular target: the molecule itself; test: native MS
[7] = molecular target: T1, SpaO SPOA1-SPOA2 construct (SpaO 140-297) (Salmonella Typhimurium strain SL1344, UniProt P40699 140-297); test: native MS
T1 sequence (looked up): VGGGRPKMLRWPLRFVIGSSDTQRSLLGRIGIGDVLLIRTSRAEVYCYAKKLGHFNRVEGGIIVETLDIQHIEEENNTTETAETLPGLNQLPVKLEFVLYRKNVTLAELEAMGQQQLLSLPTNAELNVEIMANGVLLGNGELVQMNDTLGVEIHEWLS

[8] = molecular target: T2, SpaO N-terminal domain (SpaO 1-145) (Salmonella Typhimurium strain SL1344, UniProt P40699 1-145); test: native MS
T2 sequence (looked up): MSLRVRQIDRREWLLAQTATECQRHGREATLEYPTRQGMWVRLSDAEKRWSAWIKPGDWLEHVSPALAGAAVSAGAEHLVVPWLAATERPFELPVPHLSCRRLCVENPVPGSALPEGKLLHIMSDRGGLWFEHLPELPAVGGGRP

[9] = molecular target: T3, SpaO, full-length, C-terminal Strep-tag (Salmonella Typhimurium strain SL1344, UniProt P40699 1-303); test: native MS
T3 sequence (looked up): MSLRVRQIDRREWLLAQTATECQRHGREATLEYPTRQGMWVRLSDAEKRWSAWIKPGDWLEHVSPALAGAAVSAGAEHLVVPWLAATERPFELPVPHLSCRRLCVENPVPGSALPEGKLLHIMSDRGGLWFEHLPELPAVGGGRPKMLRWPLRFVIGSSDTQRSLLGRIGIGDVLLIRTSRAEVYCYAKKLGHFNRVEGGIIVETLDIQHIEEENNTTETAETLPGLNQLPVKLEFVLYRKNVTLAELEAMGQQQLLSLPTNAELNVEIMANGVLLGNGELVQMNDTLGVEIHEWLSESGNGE

[10] = molecular target: T2, SpaO N-terminal domain (SpaO 1-145); test: SEC-MALS
[11] = molecular target: T2, SpaO N-terminal domain (SpaO 1-145); test: ITC
[12] = molecular target: T4, SpaO in the SpaO/SpaOC/OrgB/InvC complex (spaO+orgB+invC co-expression) (Salmonella Typhimurium strain SL1344, UniProt P40699 1-303); test: native MS
T4 sequence (looked up): T3 sequence (looked up)

Sequence of InvC, full-length, C-terminal Strep-tag (Salmonella Typhimurium strain SL1344) (P0A1B9 whole entry, the tested form may be a part): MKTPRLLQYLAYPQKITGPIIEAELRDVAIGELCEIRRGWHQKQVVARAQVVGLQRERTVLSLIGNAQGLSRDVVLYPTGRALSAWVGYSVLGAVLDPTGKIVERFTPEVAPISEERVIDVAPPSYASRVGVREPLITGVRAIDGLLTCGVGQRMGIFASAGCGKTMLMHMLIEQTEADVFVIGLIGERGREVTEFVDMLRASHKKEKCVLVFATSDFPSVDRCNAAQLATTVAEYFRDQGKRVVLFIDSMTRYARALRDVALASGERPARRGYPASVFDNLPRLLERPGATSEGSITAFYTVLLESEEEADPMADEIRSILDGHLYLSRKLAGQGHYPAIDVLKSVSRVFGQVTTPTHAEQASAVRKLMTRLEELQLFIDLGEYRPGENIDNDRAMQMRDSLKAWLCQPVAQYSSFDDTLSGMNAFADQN

**Q.** With “SpaO-2SpaOC heterotrimer (from UniProt P40699 1-303; P40699 203-303) (complex)” as the molecule, how does the stoichiometry N [1] read?
**A.** 2

**Q.** And the stoichiometry N [2]?
**A.** 2

**Q.** Which results are given for “OrgB (co-expressed with Strep-tagged InvC or InvC fragments) (natural protein)”?
**A.** stoichiometry N (OrgB per InvC) [3]: 2; stoichiometry N [4]: 2

**Q.** “OrgB, C-terminal His-tag (co-expressed with spaO) (natural protein)” was tested. Which stoichiometry N [5] did it give?
**A.** 2

B1: SpaOC, short product of the spaO gene, C-terminal Strep-tag (natural protein, Salmonella Typhimurium strain SL1344, UniProt P40699 203-303, looked up)
chain: METLDIQHIEEENNTTETAETLPGLNQLPVKLEFVLYRKNVTLAELEAMGQQQLLSLPTNAELNVEIMANGVLLGNGELVQMNDTLGVEIHEWLSESGNGE
**Q.** Which “stoichiometry N” value [6] does the source give for B1 here?
**A.** 2 and 4

**Q.** What about the “stoichiometry N” value [7] of the same molecule?
**A.** 2 SpaOC per SpaO(140-297)

**Q.** What about the “stoichiometry N” value [8] of the same molecule?
**A.** 4 SpaOC per SpaO(1-145)

**Q.** And the “stoichiometry N” value [9]?
**A.** 2 SpaOC per SpaO

**Q.** And the “stoichiometry N” value [10]?
**A.** 2 SpaOC per SpaO(1-145)

**Q.** What about the Kd [11] of the same molecule?
**A.** 1040 ± 210 nM

B2: SpaOC in the SpaO/SpaOC/OrgB/InvC complex (spaO+orgB+invC co-expression) (natural protein, Salmonella Typhimurium strain SL1344, UniProt P40699 203-303, looked up)
chain: B1 chain
**Q.** B2 was tested. Which “stoichiometry N” value [12] did it give?
**A.** 2 SpaOC per SpaO

— publication doi:10.1101/648071 (bioRxiv, 2019)
